The source of these data is PMC7855068 (Nature structural & molecular biology, 2020).

B2: Arp7 (natural protein)
chain: MTLNRKCVVIHNGSHRTVAGFSNVELPQCIIPSSYIKRTDEGGEAEFIFGTYNMIDAAAEKRNGDEVYTLVDSQGLPYNWDALEMQWRYLYDTQLKVSPEELPLVITMPATNGKPDMAILERYYELAFDKLNVPVFQIVIEPLAIALSMGKSSAFVIDIGASGCNVTPIIDGIVVKNAVVRSKFGGDFLDFQVHERLAPLIKEENDMENMADEQKRSTDVWYEASTWIQQFKSTMLQVSEKDLFELERYYKEQADIYAKQQEQLKQMDQQLQYTALTGSPNNPLVQKKNFLFKPLNKTLTLDLKECYQFAEYLFKPQLISDKFSPEDGLGPLMAKSVKKAGASINSMKANTSTNPNGLGTSHINTNVGDNNSTASSSNISPEQVYSLLLTNVIITGSTSLIEGMEQRIIKELSIRFPQYKLTTFANQVMMDRKIQGWLGALTMANLPSWSLGKWYSKEDYETLKRDRKQSQATNATN
B3: Arp9 (natural protein)
chain: MAPFRQDSILIIYPRSQTTLVQFGLNEETFTVPELEIPTQIYRTTRQDGSYTYHSTNKDNKAELIKPIQNGEIIDISAFTQFLRLIFVSILSDRANKNQDAFEAELSNIPLLLITHHSWSQSDLEIITQYVFESLEINNLIQLPASLAATYSMISLQNCCIIDVGTHHTDIIPIVDYAQLDHLVSSIPMGGQSINDSLKKLLPQWDDDQIESLKKSPIFEVLSDDAKKLSSFDFGNENEDEDEGTLNVAEIITSGRDTREVLEERERGQKVKNVKNSDLEFNTFWDEKGNEIKVGKQRFQGCNNLIKNISNRVGLTLDNIDDINKAKAVWENIIIVGGTTSISGFKEALLGQLLKDHLIIEPEEEKSKREEEAKSVLPAATKKKSKFMTNSTAFVPTIEYVQCPTVIKLAKYPDYFPEWKKSGYSEIIFLGAQIVSKQIFTHPKDTFYITREKYNMKGPAALWDVQF
B5: Sth1 (AA 301–1097), truncated ATPase subunit of RSC (domain or fragment)
chain: VRLAEELERQQLLEKRKKERNLHLQKINSIIDFIKERQSEQWSRQERCFQFGRLGASLHNQMEKDEQKRIERTAKQRLAALKSNDEEAYLKLLDQTKDTRITQLLRQTNSFLDSLSEAVRAQQNEAKILHGEEVQPITDEEREKTDYYEVAHRIKEKIDKQPSILVGGTLKEYQLRGLEWMVSLYNNHLNGILADEMGLGKTIQSISLITYLYEVKKDIGPFLVIVPLSTITNWTLEFEKWAPSLNTIIYKGTPNQRHSLQHQIRVGNFDVLLTTYEYIIKDKSLLSKHDWAHMIIDEGHRMKNAQSKLSFTISHYYRTRNRLILTGTPLQNNLPELWALLNFVLPKIFNSAKTFEDWFNTPFANTGTQEKLELTEEETLLIIRRLHKVLRPFLLRRLKKEVEKDLPDKVEKVIKCKLSGLQQQLYQQMLKHNALFVGAGTEGATKGGIKGLNNKIMQLRKICNHPFVFDEVEGVVNPSRGNSDLLFRVAGKFELLDRVLPKFKASGHRVLMFFQMTQVMDIMEDFLRMKDLKYMRLDGSTKTEERTEMLNAFNAPDSDYFCFLLSTRAGGLGLNLQTADTVIIFDTDWNPHQDLQAQDRAHRIGQKNEVRILRLITTDSVEEVILERAMQKLDIDGKVIQAGKFDNKSTAEEQEAFLRRLIESETNRDDDDKAELDDDELNDTLARSADEKILFDKIDKERMNQERADAKAQGLRVPPPRLIQLDELPKVFREDIEEHFKKEDSEPLGRIRQKKRVYYDDGLTEEQFLEAVEDDNMSLEDAIKKRREARERRRLRQ

Test [1] concerns the target T1, Arp7/Arp9/Rtt102 heterotrimer (S. cerevisiae, UniProt Q12406;Q05123;P53330).
T1 sequence 1: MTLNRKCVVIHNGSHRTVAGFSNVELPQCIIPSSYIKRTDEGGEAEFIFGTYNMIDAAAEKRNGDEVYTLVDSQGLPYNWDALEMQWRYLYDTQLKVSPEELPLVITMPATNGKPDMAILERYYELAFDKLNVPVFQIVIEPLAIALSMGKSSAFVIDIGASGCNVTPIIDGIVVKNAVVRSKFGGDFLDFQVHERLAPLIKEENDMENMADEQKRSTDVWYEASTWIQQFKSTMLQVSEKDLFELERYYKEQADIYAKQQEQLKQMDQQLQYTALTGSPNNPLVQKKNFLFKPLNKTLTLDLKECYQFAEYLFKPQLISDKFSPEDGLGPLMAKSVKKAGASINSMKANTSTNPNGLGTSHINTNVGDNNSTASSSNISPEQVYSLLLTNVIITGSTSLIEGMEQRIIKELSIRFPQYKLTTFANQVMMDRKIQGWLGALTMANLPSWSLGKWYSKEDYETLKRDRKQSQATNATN
T1 sequence 2: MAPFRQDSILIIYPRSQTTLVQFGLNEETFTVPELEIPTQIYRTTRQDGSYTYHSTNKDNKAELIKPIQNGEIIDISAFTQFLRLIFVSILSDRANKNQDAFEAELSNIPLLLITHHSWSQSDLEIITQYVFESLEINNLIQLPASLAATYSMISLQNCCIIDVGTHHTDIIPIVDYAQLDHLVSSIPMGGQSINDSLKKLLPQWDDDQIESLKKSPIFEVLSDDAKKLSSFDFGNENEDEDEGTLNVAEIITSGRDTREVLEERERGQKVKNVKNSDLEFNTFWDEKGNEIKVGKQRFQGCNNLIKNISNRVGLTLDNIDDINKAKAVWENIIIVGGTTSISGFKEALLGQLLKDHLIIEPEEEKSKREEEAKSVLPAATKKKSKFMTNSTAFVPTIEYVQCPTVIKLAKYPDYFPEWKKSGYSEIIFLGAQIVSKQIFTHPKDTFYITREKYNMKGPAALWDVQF
T1 sequence 3: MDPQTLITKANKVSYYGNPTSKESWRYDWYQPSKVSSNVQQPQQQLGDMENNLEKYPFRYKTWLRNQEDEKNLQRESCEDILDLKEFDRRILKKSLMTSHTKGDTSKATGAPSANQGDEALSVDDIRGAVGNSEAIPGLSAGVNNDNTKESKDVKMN
As to the kind of experiment: circular dichroism. Background: Circular dichroism is widely used to follow secondary structure.

Test [2] addresses B5. As to the kind of experiment: cryo-EM structure.
Test [3] concerns the target B2. As to the kind of experiment: cryo-EM structure.
Test [4] has as its target B3. As to the kind of experiment: cryo-EM structure.
In test [5] the target is T1, Arp7/Arp9/Rtt102 heterotrimer. As to the kind of experiment: cryo-EM structure.

B1: HSA peptide (Sth1 residues 316–377) (peptide)
peptide: RKKERNLHLQKINSIIDFIKERQSEQWSRQERCFQFGRLGASLHNQMEKDEQKRIERTAKQR
For the molecule B1, the binding result in test [1] is “binds”.
For B2, the binding result in test [2] is recorded as “binds”.
As for B3, the binding result in test [2] and in test [3] was “binds” throughout.

B4: Rtt102 (natural protein)
chain: MDPQTLITKANKVSYYGNPTSKESWRYDWYQPSKVSSNVQQPQQQLGDMENNLEKYPFRYKTWLRNQEDEKNLQRESCEDILDLKEFDRRILKKSLMTSHTKGDTSKATGAPSANQGDEALSVDDIRGAVGNSEAIPGLSAGVNNDNTKESKDVKMN
As to B4, the binding result in test [4] and in test [3] was “binds” throughout.
Turning to B5, the binding result in test [5] is given as “binds”.
